Test [1] concerns the target T1, Centromere B (UniProt P07199 1-599).
T1 construct: also called Cent B
T1 sequence: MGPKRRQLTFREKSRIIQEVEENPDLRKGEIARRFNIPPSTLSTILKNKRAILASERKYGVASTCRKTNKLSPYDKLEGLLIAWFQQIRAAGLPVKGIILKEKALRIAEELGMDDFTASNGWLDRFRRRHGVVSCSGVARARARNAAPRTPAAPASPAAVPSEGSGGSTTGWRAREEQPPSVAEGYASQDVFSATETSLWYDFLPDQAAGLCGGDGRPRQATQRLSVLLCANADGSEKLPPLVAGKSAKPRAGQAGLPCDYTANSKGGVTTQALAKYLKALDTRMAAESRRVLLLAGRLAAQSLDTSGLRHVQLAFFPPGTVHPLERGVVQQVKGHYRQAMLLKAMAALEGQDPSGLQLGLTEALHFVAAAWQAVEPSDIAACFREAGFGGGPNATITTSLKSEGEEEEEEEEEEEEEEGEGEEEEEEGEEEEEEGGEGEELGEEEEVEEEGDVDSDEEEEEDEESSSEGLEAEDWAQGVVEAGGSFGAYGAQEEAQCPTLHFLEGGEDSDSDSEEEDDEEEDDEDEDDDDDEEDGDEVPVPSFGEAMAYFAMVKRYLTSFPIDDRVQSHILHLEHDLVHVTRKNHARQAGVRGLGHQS
Kind of test: AtheNA, Ab 12.5 ug/ml.

The target in test [2] is T2, Histones.
T2 construct: Mixture of proteins
In words: AtheNA, Ab 12.5 ug/ml.

The target in test [3] is T3, Scl-70 (UniProt P11387 1-765).
T3 sequence: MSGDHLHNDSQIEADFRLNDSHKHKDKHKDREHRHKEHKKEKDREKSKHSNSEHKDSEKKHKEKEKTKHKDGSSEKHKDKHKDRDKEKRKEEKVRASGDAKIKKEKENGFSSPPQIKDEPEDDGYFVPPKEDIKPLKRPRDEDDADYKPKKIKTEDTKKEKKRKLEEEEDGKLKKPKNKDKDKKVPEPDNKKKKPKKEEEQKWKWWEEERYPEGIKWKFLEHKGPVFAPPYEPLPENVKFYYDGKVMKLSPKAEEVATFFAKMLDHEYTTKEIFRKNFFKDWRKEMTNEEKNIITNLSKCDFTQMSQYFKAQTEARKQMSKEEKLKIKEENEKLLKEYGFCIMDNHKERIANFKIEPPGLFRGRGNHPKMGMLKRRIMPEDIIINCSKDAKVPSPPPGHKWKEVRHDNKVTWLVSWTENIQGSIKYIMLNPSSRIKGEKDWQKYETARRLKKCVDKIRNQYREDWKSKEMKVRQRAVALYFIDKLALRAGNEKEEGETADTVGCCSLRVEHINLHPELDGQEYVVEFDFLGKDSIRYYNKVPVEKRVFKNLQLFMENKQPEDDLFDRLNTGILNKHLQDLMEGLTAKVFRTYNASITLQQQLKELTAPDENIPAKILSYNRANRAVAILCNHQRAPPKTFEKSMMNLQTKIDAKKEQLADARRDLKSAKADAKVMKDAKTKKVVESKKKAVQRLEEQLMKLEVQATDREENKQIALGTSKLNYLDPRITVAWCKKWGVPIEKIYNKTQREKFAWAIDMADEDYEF
In words: AtheNA, Ab 12.5 ug/ml.

Test [4] concerns the target T4, SSA.
T4 construct: also called SSA (Ro)
Kind of test: AtheNA, Ab 12.5 ug/ml.

Test [5] deals with T5, RNP (ribonucleoprotein).
T5 construct: Protein-RNA complex
In words: AtheNA, Ab 12.5 ug/ml.

The target of test [6] is T6, SSB (UniProt P05455 1-408).
T6 sequence: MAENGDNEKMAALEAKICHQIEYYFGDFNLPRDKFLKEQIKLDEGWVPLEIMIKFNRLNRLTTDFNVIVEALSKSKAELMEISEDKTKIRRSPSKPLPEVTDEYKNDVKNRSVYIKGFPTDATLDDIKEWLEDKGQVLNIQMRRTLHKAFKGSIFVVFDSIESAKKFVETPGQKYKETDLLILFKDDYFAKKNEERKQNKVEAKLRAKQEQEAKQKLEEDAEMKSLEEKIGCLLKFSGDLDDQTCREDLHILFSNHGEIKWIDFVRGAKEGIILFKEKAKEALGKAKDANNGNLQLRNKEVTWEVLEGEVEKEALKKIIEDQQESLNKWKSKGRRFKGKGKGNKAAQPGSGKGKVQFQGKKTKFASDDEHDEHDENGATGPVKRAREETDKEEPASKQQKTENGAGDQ
In words: AtheNA, Ab 12.5 ug/ml.

Test [7] has as its target T7, Jo-1 (UniProt P12081 1-509).
T7 sequence: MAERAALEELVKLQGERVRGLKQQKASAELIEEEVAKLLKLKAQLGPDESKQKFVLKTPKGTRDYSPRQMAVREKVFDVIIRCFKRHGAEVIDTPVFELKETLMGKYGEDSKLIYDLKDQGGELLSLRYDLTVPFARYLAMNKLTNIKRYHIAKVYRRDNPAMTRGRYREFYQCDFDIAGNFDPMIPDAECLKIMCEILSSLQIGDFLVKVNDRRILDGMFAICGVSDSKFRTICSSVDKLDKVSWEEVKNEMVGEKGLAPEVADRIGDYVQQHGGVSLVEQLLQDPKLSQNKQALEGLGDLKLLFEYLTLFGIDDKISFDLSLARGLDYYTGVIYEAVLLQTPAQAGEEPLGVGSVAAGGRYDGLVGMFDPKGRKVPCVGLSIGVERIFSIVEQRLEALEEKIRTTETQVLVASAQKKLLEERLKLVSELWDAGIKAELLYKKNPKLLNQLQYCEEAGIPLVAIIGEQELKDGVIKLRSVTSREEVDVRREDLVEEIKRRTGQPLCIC
Kind of test: AtheNA, Ab 12.5 ug/ml.

Test [8] deals with T8, Sm (Smith antigen).
T8 construct: Protein complex
In words: AtheNA, Ab 12.5 ug/ml.

In test [9] the target is T1, Centromere B. In words: AtheNA, Ab 50 ug/ml.
Test [10] deals with T2, Histones. In words: AtheNA, Ab 50 ug/ml.
Test [11] deals with T3, Scl-70. In words: AtheNA, Ab 50 ug/ml.
Test [12] concerns the target T9, CH505.TF mutant gp120 M8 (HIV-1).
T9 construct: domain: gp120
Kind of test: direct-binding ELISA (OD450), panel 'CH505.TF gp120 M8'.

Test [13] has as its target T5, RNP (ribonucleoprotein). In words: AtheNA, Ab 6.25 ug/ml.
Description: (§1) AtheNA Multi-Lyte ANA Plus Test System is one such assay. This is luminex-based assay, which is also used to screen patient sera.
In test [14] the target is T6, SSB. Kind of test: AtheNA, Ab 6.25 ug/ml.
Description: as §1

Usually EC50 (read off the curve) stands for the concentration that produces a half-maximal response. Read a high EC50 (read off the curve) as a need for much substance.

B1: CH557 (antibody, V domains shown)
VH: QVRLAQYGGGVKRLGATMTLSCVASGYTFNDYYIHWVRQAPGQGFELLGYIDPANGRPDYAGALRERLSFYRDKSMETLYMDLRSLRYDDTAMYYCVRNVGTAGSLLHYDHWGSGSPVIVSS
VL: EIVLTQSPATLSASPGERVTLTCRASRSVRNNVAWYQHKGGQSPRLLIYDASTRAAGVPARFSGSASGTEFTLAISNLESEDFTVYFCLQYNNWWTFGQGTRVDIK
notes: also called CH235.12; CH557_4A/293i
On to B1, for which the AtheNA signal in test [1] was 16 relative luminescence units; in test [2], 6 relative luminescence units; in [3] it was 3 relative luminescence units; in [4], 3 relative luminescence units; in test [5] it was 3 relative luminescence units; in test [6], 9 relative luminescence units. Also, the AtheNA signal was 5 relative luminescence units in [7]; 6 relative luminescence units in test [8]; 46 relative luminescence units in [9]; 16 relative luminescence units in [10]; 6 relative luminescence units in [11].

B2: CH493 (antibody, V domains shown)
VH: QVRLLQYGGGVKRPGASMTISCVASGYNFNDYYIHWVRQAPGQGLELMGWIDPSGGRTDYAGAFGDRVSMYRDKSMNTLYMDLRSLRSGDTAMYYCVRNVGTAGSLLHYDHWGLGVMVTVSS
VL: EIVLTQSPATLSVSPGERVTLSCRASQSVRNNLAWYRQKRGQAPRLLIYGASTRATGIPARFSGSGSGTEFTLTISSMQSEDFAVYYCQQYNNWWTFGQGTKVEIK
notes: also called CH235.9; DH493
Regarding B2, the “EC50 (read off the curve)” value in test [12] is approximately 2 µg/mL. Moreover, the AtheNA signal was 32 in test [13] and 15 in [14].

The values are drawn from patent US10450368 (DUKE UNIVERSITY, dated 2019).
